Key:
Assay in all cases: PEPSCAN ELISA, looped 15-mer, 10 ug/ml
looped peptide […] [1] = molecular target: looped peptide […] (rabies virus strain ERA)
looped peptide […] [2] = molecular target: looped peptide […] (rabies virus strain ERA); remark: listed apart in the source
[3] = molecular target: looped peptide … (rabies virus strain ERA)
looped peptide […] [4] = molecular target: looped peptide […] (rabies virus strain ERA); remark: listed apart in the source
[5] = molecular target: looped peptide … (rabies virus strain ERA); remark: listed apart in the source
looped peptide […] [6] = molecular target: looped peptide […] (rabies virus strain ERA); remark: listed apart in the source
[7] = molecular target: looped peptide … (rabies virus strain ERA); remark: listed apart in the source
[8] = molecular target: looped peptide … (rabies virus strain ERA); remark: listed apart in the source
[9] = molecular target: looped peptide … (rabies virus strain ERA); remark: listed apart in the source
looped peptide […] [10] = molecular target: looped peptide […] (rabies virus strain ERA); remark: listed apart in the source
[11] = molecular target: looped peptide … (rabies virus strain ERA); remark: listed apart in the source
[12] = molecular target: looped peptide … (rabies virus strain ERA); remark: listed apart in the source
looped peptide […] [13] = molecular target: looped peptide […] (rabies virus strain ERA); remark: listed apart in the source

B1: human monoclonal antibody CRJA (antibody, V domains shown)
VH: EVQLLESGGGLVQPGGSLRLSCAASGFTFSNYAMSWVRQAPGKGLEWVSAISASGHSTYLADSVKGRFTISRDNSKNTLYLQMNSLRAEDTAVYYCAKDREVTMIVVLNGGFDYWGQGTRVTVSS
VL: EIVLTQSPATLSLSPGERATLACRASQTASRYLAWYQQKPGQAPRLLIYDTSNRATGIPARFSGSGSGTDFTLSISSLEPEDFAVYYCQQRFNWPWTFGQGTKVEFK
Work on B1 yielded an OD value (looped peptide […] [1]) of 93, an OD value (looped peptide […] [2]) of 164 and an OD value [3] of 87. For the same binder, the OD value (looped peptide […] [4]) was 320, the OD value [5] was 54 and the OD value (looped peptide […] [6]) was 468. The OD value [7] was 71, the OD value [8] was 90 and the OD value [9] was 79. The OD value (looped peptide […] [10]) was 152, the OD value [11] was 50 and the OD value [12] was 82. For the same binder, the OD value (looped peptide […] [13]) was 123.

From patent publication US20060263802A1 (CRUCELL HOLLAND B V, published 2006)
